Laboratory results published in patent publication US20230330033A1.

Target: CD40 (UniProt P25942)
Assay: cell-based or functional assay

EC50 of CD40 activation, bioluminescent reporter CHO cells: -1.47 log(µM)
Substance: LOB7/6 (antibody)
